Results on two molecules are retold here after patent US20200317768A1 (published 2020).

Assay in all cases: SPR (Biacore); KD of SG1 / KD of variant;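 also: relative to parent M103205H795-SG1 carrying the SG1 human heavy chain constant region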
On the technique in general: In SPR one partner is held on a chip, and binding of the other changes the refractive index at the surface.

Assay [1] has as its target T1, cynomolgus monkey FcγRIIa2 extracellular domain, C-terminal His-tag (cynomolgus monkey).
T1 construct: also called cyno FcγRIIa2; cynoFcgRIIa2
T1 chain: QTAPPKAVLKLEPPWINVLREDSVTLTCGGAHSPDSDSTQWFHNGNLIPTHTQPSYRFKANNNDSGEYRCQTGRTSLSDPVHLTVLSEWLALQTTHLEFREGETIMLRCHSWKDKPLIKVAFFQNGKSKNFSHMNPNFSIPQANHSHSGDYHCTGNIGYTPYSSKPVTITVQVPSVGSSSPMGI

The target in assay [2] is T2, cynomolgus monkey FcγRIIa3 extracellular domain, C-terminal His-tag (cynomolgus monkey).
T2 construct: also called cyno FcγRIIa3; cynoFcgRIIa3
T2 chain: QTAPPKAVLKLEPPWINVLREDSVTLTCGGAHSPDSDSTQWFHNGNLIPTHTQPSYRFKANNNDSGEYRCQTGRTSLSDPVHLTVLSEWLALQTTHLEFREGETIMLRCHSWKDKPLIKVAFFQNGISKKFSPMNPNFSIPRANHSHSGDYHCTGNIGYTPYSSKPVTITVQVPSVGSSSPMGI

Assay [3] concerns the target T3, cynomolgus monkey FcγRIIb extracellular domain, C-terminal His-tag (cynomolgus monkey).
T3 construct: also called cyno FcγRIIb; cynoFcγRIIb
T3 chain: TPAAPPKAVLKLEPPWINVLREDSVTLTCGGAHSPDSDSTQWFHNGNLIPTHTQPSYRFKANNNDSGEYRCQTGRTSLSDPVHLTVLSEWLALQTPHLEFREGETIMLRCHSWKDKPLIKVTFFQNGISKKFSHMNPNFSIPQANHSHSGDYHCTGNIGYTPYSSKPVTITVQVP

For assay [4], the target named is T4, cynomolgus monkey FcγRIIIaS extracellular domain, C-terminal His-tag (cynomolgus monkey, UniProt Q8SPW2 21-206 at identity 1.00)).
T4 construct: also called cyno FcγRIIIaS; cynoFcγRIIIaS
T4 chain: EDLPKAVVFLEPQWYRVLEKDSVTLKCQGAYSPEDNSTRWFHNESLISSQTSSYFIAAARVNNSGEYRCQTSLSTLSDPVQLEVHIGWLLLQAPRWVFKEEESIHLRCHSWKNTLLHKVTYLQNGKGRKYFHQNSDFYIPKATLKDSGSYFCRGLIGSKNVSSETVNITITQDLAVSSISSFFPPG

Assay [5] has as its target T5, human FcγRIIaH extracellular domain, C-terminal His-tag (human, UniProt P12318 34-217).
T5 construct: also called human FcγRIIa (type H); FcgRIIaH
T5 sequence: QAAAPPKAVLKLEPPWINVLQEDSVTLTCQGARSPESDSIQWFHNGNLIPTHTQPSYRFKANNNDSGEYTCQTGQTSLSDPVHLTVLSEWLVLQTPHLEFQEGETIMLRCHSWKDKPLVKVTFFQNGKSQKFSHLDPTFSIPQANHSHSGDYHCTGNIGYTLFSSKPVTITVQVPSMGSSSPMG

The target of assay [6] is T6, human FcγRIIaR extracellular domain, C-terminal His-tag (human, UniProt P12318 34-217).
T6 construct: also called human FcγRIIa (type R); FcgRIIaR
T6 chain: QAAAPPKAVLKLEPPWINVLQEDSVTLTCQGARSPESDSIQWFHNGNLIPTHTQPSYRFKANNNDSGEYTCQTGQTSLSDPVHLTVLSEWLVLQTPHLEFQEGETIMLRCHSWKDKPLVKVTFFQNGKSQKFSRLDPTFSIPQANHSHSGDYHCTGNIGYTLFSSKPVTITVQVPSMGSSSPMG

In assay [7] the target is T7, human FcγRIIb extracellular domain, C-terminal His-tag (human, UniProt P31994 43-217).
T7 construct: also called human FcgRIIb; FcgRIIb
T7 sequence: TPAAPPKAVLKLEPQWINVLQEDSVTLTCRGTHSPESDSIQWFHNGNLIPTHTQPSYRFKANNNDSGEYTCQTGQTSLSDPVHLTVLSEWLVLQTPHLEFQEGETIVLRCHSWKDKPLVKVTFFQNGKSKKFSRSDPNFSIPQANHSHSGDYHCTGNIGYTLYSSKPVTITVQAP

For assay [8], the target named is T8, human FcγRIIIaV extracellular domain, C-terminal His-tag (human, UniProt P08637 17-208).
T8 construct: also called human FcgRIIIaV; FcgRIIIaV
T8 sequence (P08637 17-208 F176V): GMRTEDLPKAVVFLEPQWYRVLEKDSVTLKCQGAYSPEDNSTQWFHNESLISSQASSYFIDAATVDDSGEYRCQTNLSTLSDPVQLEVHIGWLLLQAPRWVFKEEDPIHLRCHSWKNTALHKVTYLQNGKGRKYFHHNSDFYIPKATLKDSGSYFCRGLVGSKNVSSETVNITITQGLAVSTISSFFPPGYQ

B1: M103205H795-MY147/M103202L889-SK1 (antibody, human IgG1, kappa)
heavy: QVTLKESGPVLVKPTETLTLTCTVSGIDLSHDDISWVRQAPGKGLEWVGIISYAGSTYYASWAKGRLTISKDTSKNQVVLTMTNMDPVDTATYYCARGVPAYSHGGDLWGQGTLVTVSSASTKGPSVFPLAPSSKSTSGGTAALGCLVKDYFPEPVTVSWNSGALTSGVHTFPAVLQSSGLYSLSSVVTVPSSSLGTQTYICNVNHKPSNTKVDKKVEPKSCDKTHTCPPCPAPELWNGPSVFLFPPKPKDTLMISRTPEVTCVVVDVSEEDPEVKFNWYVDGVEVHNAKTKPREEQYNSTYRVVSVLTVLHQDWLNGKEYKCKVSNKALPAPIEKTISKAKGQPREPQVYTLPPSREEMTKNQVSLTCLVKGFYPSDIAVEWESNGQPENNYKTTPMVLDSDGSFFLYSKLTVDKSRWQQGNVFSCSVMHEALHNHYTQKSLSLSP
light: DIVMTQSPATLSLSPGERATLSCTSSQSVYHANWLSWFQQKPGQPPKLLIYWASTLAYGVPSRFSGSGSGTDFTLTISSLQPEDAATYYCAGGYGGGRYAFGQGTKVEIKRTVAAPSVFIFPPSDEQLKSGTASVVCLLNNFYPREAKVQWKVDNALQSGNSQESVTEQDSKDSTYSLSSTLTLSKADYEKHKVYACEVTHQGLSSPVTKSFNRGEC
notes: Substitutions introduced into M103205H795-SG1; expressed with M103202L889-SK1 as light chain
In the case of B1, the “KD fold (SG1 = 1)” value amounted to 2.3 fold in assay [1]; 2.6 fold in assay [2]; 3.9 fold in assay [3]; 0.07 fold in assay [4]; 0.6 fold in assay [5]; 1 fold in assay [6]. The “KD fold (SG1 = 1)” value in assay [7] was found to be 5.5 fold; in assay [8] it was 0.07 fold.

B2: M103205H795-MY197/M103202L889-SK1 (antibody, human IgG1, kappa)
heavy: QVTLKESGPVLVKPTETLTLTCTVSGIDLSHDDISWVRQAPGKGLEWVGIISYAGSTYYASWAKGRLTISKDTSKNQVVLTMTNMDPVDTATYYCARGVPAYSHGGDLWGQGTLVTVSSASTKGPSVFPLAPSSKSTSGGTAALGCLVKDYFPEPVTVSWNSGALTSGVHTFPAVLQSSGLYSLSSVVTVPSSSLGTQTYICNVNHKPSNTKVDKKVEPKSCDKTHTCPPCPAPELLNGPSVFLFPPKPKDTLMISRTPEVTCVVVDVSDEDPEVKFNWYVDGVEVHNAKTKPREEQYNSTYRVVSVLTVLHQDWLNGKEYKCKVSNKALPKPIEKTISKAKGQPREPQVYTLPPSREEMTKNQVSLTCLVKGFYPSDIAVEWESNGQPENNYKTTPMVLDSDGSFFLYSKLTVDKSRWQQGNVFSCSVMHEALHNHYTQKSLSLSP
light: DIVMTQSPATLSLSPGERATLSCTSSQSVYHANWLSWFQQKPGQPPKLLIYWASTLAYGVPSRFSGSGSGTDFTLTISSLQPEDAATYYCAGGYGGGRYAFGQGTKVEIKRTVAAPSVFIFPPSDEQLKSGTASVVCLLNNFYPREAKVQWKVDNALQSGNSQESVTEQDSKDSTYSLSSTLTLSKADYEKHKVYACEVTHQGLSSPVTKSFNRGEC
notes: as for B1
On to B2, for which the “KD fold (SG1 = 1)” value in assay [1] came out at 9.1 fold; in assay [2] it was 12.1 fold; in assay [3] it was 10.6 fold; in assay [4], 0.17 fold; in assay [5], 1.9 fold; in assay [6] it was 1.5 fold. For the same molecule, the “KD fold (SG1 = 1)” value came out at 11.8 fold in assay [7] and 0.08 fold in assay [8].
